For one substance, protein eluting in the void volume of Sephacryl S200 (self-association) results are on record in article PMC2289352.

This test deals with S1 triple mutant containing all three substitutions L108D, L112D, and V117D. The test is described as follows: SEC. A general note: In gel filtration, larger molecules generally elute earlier.

Bounds are passed on as bounds.

In turn, “S1 triple mutant containing all three substitutions L108D, L112D, and V117D (domain or fragment)” displayed a protein eluting in the void volume of Sephacryl S200 (self-association) above 50%.
